Patent publication US20220064257A1 (published 2022)
Values joined by “and” are separate entries in the source; they are usually repeats but may differ in a detail not shown here. Equal values may be shown once. One block for each binder: values may come before it.

Key:
[1] = target: T1, MYD88 L265P peptide on HLA-B*07:02 (human); test: printed as KD (TCR affinity/avidity): non-linear curve analysis of the IFNγ ELISA response; TCR-transduced CD8+ T cells from healthy donors with K562 cells transduced with HLA*B07:02 and loaded with titrated peptide; full-length, on cells
T1 peptide: RPIPIKYKAM

[2] = target: T2, human self peptide predicted by Expitope for TCR2304 (source protein not named) peptide on HLA-B*07:02 (human); test: cytokine release
T2 peptide: VPIIIKYLMF

[3] = target: T3, human self peptide predicted by Expitope for TCR2304 (source protein not named) peptide on HLA-B*07:02 (human); test: cytokine release
T3 peptide: RPDLIDYKSL

[4] = target: T4, human self peptide predicted by Expitope for TCR2304 (source protein not named) peptide on HLA-B*07:02 (human); test: cytokine release
T4 peptide: LPLYISYVAM

[5] = target: T5, human self peptide predicted by Expitope for TCR2304 (source protein not named) peptide on HLA-B*07:02 (human); test: cytokine release
T5 peptide: LPTRIAYYAM

[6] = target: T6, human self peptide predicted by Expitope for TCR2304 (source protein not named) peptide on HLA-B*07:02 (human); test: cytokine release
T6 peptide: LPIHITYAAM

[7] = target: T7, human self peptide predicted by Expitope for TCR2304 (source protein not named) peptide on HLA-B*07:02 (human); test: cytokine release
T7 peptide: TPPKIPYKAI

[8] = target: T8, MYD88 L265P epitope of SEQ ID NO: 2 with alanine at position 2 (alanine scan); residues derived from the … (human); test: cytokine release
T8 peptide: RAIPIKYKAM

[9] = target: T9, human self peptide predicted by Expitope for TCR2304 (source protein not named) peptide on HLA-B*07:02 (human); test: cytokine release
T9 peptide: RPAMIPYWAL

[10] = target: T10, human self peptide predicted by Expitope for TCR2304 (source protein not named) peptide on HLA-B*07:02 (human); test: cytokine release
T10 peptide: RPQPIYYGFS

[11] = target: T11, human self peptide predicted by Expitope for TCR2304 (source protein not named) peptide on HLA-B*07:02 (human); test: cytokine release
T11 peptide: KPIRIGYKIW

[12] = target: T12, human self peptide predicted by Expitope for TCR2304 (source protein not named) peptide on HLA-B*07:02 (human); test: cytokine release
T12 peptide: RPVPISYHQL

[13] = target: T13, human self peptide predicted by Expitope for TCR2304 (source protein not named) peptide on HLA-B*07:02 (human); test: cytokine release
T13 peptide: LPQSIVYKYM

[14] = target: T14, human self peptide predicted by Expitope for TCR2304 (source protein not named) peptide on HLA-B*07:02 (human); test: cytokine release
T14 peptide: RPRMIGYGAI

EC50 of peptide [1]: 0.003 µg/ml and 2.4 nM
binding result [2]: no recognition
binding result [3]: no recognition
binding result [4]: no recognition
binding result [5]: no recognition
binding result [6]: no recognition
binding result [7]: no recognition
binding result [8]: no recognition
binding result [9]: no recognition
binding result [10]: no recognition
binding result [11]: no recognition
binding result [12]: no recognition
binding result [13]: no recognition
binding result [14]: no recognition
B1: TCR2304 (TCR, V domains shown)
Valpha: GQNIDQPTEMTATEGAIVQINCTYQTSGFNGLFWYQQHAGEAPTFLSYNVLDGLEEKGRFSSFLSRSKGYSYLLLKELQMKDSASYLCAVRASGTYKYIFGTGTRLKVLA
Vbeta: DAGVIQSPRHEVTEMGQEVTLRCKPISGHNSLFWYRQTMMRGLELLIYFNNNVPIDDSGMPEDRFSAKMPNASFSTLKIQPSEPRDSAVYFCASQDSYEQYFGPGTRLTVT

EC50 of peptide [1]: 0.099 µg/ml and 81 nM
B2: TCR2716 (TCR, V domains shown)
Valpha: AQTVTQSQPEMSVQEAETVTLSCTYDTSENNYYLFWYKQPPSRQMILVIRQEAYKQQNATENRFSVNFQKAAKSFSLKISDSQLGDTAMYFCAFMKPYSGGGADGLTFGKGTHLIIQP
Vbeta: AAGVIQSPRHLIKEKRETATLKCYPIPRHDTVYWYQQGPGQDPQFLISFYEKMQSDKGSIPDRFSAQQFSDYHSELNMSSLELGDSALYFCASSLAGTTVYNEQFFGPGTRLTVL

EC50 of peptide [1]: 0.009 µg/ml and 7.4 nM
B3: TCR1605 (TCR, V domains shown)
Valpha: GESVGLHLPTLSVQEGDNSIINCAYSNSASDYFIWYKQESGKGPQFIIDIRSNMDKRQGQRVTVLLNKTVKHLSLQIAATQPGDSAVYFCAEGTGSARQLTFGSGTQLTVLP
Vbeta: DVKVTQSSRYLVKRTGEKVFLECVQDMDHENMFWYRQDPGLGLRLIYFSYDVKMKEKGDIPEGYSVSREKKERFSLILESASTNQTSMYLCASGPFRDSVLTLVANVLTFGAGSRLTVL

EC50 of peptide [1]: 0.102 µg/ml and 83 nM
B4: TCR2709 (TCR, V domains shown)
Valpha: DAKTTQPNSMESNEEEPVHLPCNHSTISGTDYIHWYRQLPSQGPEYVIHGLTSNVNNRMASLAIAEDRKSSTLILHRATLRDAAVYYCILRDRYGGSQGNLIFGKGTKLSVKP
Vbeta: NAGVTQTPKFRVLKTGQSMTLLCAQDMNHEYMYWYRQDPGMGLRLIHYSVGEGTTAKGEVPDGYNVSRLKKQNFLLGLESAAPSQTSVYFCASSYWPTTGESTDTQYFGPGTRLTVL

EC50 of peptide [1]: 0.009 µg/ml and 7.4 nM
B5: TCR1610 (TCR, V domains shown)
Valpha: KQEVTQIPAALSVPEGENLVLNCSFTDSAIYNLQWFRQDPGKGLTSLLLIQSSQREQTSGRLNASLDKSSGRSTLYIAASQPGDSATYLCAPLGGGYNKLIFGAGTRLAVHP
Vbeta: NAGVTQTPKFRILKIGQSMTLQCAQDMNHNYMYWYRQDPGMGLKLIYYSVGAGITDKGEVPNGYNVSRSTTEDFPLRLELAAPSQTSVYFCASRLPTTDEKLFFGSGTQLSVL

EC50 of peptide [1]: 0.033 µg/ml and 27 nM
B6: TCR2202 (TCR, V domains shown)
Valpha: LAKTTQPISMDSYEGQEVNITCSHNNIATNDYITWYQQFPSQGPRFIIQGYKTKVTNEVASLFIPADRKSSTLSLPRVSLSDTAVYYCLSLSDSNYQLIWGAGTKLIIKP
Vbeta: DSGVTQTPKHLITATGQRVTLRCSPRSGDLSVYWYQQSLDQGLQFLIQYYNGEERAKGNILERFSAQQFPDLHSELNLSSLELGDSALYFCASSVGQGSYEQYFGPGTRLTVT

EC50 of peptide [1]: 0.024 µg/ml and 19 nM
B7: TCR2719 (TCR, V domains shown)
Valpha: LAKTTQPISMDSYEGQEVNITCSHNNIATNDYITWYQQFPSQGPRFIIQGYKTKVTNEVASLFIPADRKSSTLSLPRVSLSDTAVYYCLVGADSNYQLIWGAGTKLIIKP
Vbeta: DSGVTQTPKHLITATGQRVTLRCSPRSGDLSVYWYQQSLDQGLQFLIQYYNGEERAKGNILERFSAQQFPDLHSELNLSSLELGDSALYFCASSPGGGAYEQYFGPGTRLTVT

EC50 of peptide [1]: 0.004 µg/ml and 3.2 nM
B8: TCR2205 (TCR, V domains shown)
Valpha: LAKTTQPISMDSYEGQEVNITCSHNNIATNDYITWYQQFPSQGPRFIIQGYKTKVTNEVASLFIPADRKSSTLSLPRVSLSDTAVYYCLVGRDGGSYIPTFGRGTSLIVHP
Vbeta: DSGVTQTPKHLITATGQRVTLRCSPRSGDLSVYWYQQSLDQGLQFLIHYYNGEERAKGNILERFSAQQFPDLHSELNLSSLELGDSALYFCASSAGQGAYEQYFGPGTRLTVT

EC50 of peptide [1]: 0.003 µg/ml and 2.4 nM
B9: TCR2207 (TCR, V domains shown)
Valpha: GQNIDQPTEMTATEGAIVQINCTYQTSGFNGLFWYQQHAGEAPTFLSYNVLDGLEEKGRFSSFLSRSKGYSYLLLKELQMKDSASYLCAVDVGYSTLTFGKGTMLLVSP
Vbeta: GAVVSQHPSWVICKSGTSVKIECRSLDFQATTMFWYRQFPKQSLMLMATSNEGSKATYEQGVEKDKFLINHASLTLSTLTVTSAHPEDSSFYICSARDRSGTLGGELFFGEGSRLTVL

EC50 of peptide [1]: 0.123 µg/ml and 100 nM
B10: TCR2219 (TCR, V domains shown)
Valpha: QQPVQSPQAVILREGEDAVINCSSSKALYSVHWYRQKHGEAPVFLMILLKGGEQMRHEKIFASFNEKKQQSSLYLTASQLSYSGTYFCGTAHLRAGSYQLTFGKGTKLSVIP
Vbeta: EAQVTQNPRYLITVTGKKLTVTCSQNMNHEYMSWYRQDPGLGLRQIYYSMNVEVTDKGDVPEGYKVSRKEKRNFPLILESPSPNQTSLYFCASSSSSGGAFNEQFFGPGTRLTVL

EC50 of peptide [1]: 0.387 µg/ml and 310 nM
B11: TCR1336 (TCR, V domains shown)
Valpha: GENVEQHPSTLSVQEGDSAVIKCTYSDSASNYFPWYKQELGKRPQLIIDIRSNVGEKKDQRIAVTLNKTAKHFSLHITETQPEDSAVYFCAASGRYDYKLSFGAGTTVTVRA
Vbeta: DAMVIQNPRYQVTQFGKPVTLSCSQTLNHNVMYWYQQKSSQAPKLLFHYYDKDFNNEADTPDNFQSRRPNTSFCFLDIRSPGLGDAAMYLCATASDLQGDRSTEAFFGQGTRLTVV

EC50 of peptide [1]: 0.02 µg/ml and 16 nM
B12: TCR2705 (TCR, V domains shown)
Valpha: QKEVEQDPGPLSVPEGAIVSLNCTYSNSAFQYFMWYRQYSRKGPELLMYTYSSGNKEDGRFTAQVDKSSKYISLFIRDSQPSDSATYLCAMSGTGGFKTIFGAGTRLFVKA
Vbeta: ETGVTQTPRHLVMGMTNKKSLKCEQHLGHNAMYWYKQSAKKPLELMFVYSLEERVENNSVPSRFSPECPNSSHLFLHLHTLQPEDSALYLCASSQDRPNYYGYTFGSGTRLTVV
